Results on 7 substances are retold here after the supplement of paper PMC3353916.

± gives the standard deviation of the averaged measurements.

The subject of this series is Sindbis virus TE/5'2J-GFP. The series is described as follows: percent infected (GFP+ in RFP+ ISG-expressing cells); higher = more infection (less antiviral activity). As to the method: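 Confirmatory testing of 87 ISGs. Triplicate wells of BHK/HA-Zeo (control) or BHK/NZAP-Zeo (ZAP) cells were transduced with lentiviruses co-expressing a human ISG plus TagRFP, then infected 48 h later with SINV TE/5'2J-GFP (moi 5). The % GFP+ cells among RFP+ cells was measured by flow cytometry at 8 h post infection. Fluc lentivirus served as control. Three independent experiments.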

[1] abbreviates: experiment: confirmatory screen 1, BHK/HA-Zeo (control).
Where [2] appears, read: experiment: confirmatory screen 1, BHK/NZAP-Zeo (ZAP).
Setting [3] is: experiment: confirmatory screen 2, BHK/HA-Zeo (control).
[4] abbreviates: experiment: confirmatory screen 2, BHK/NZAP-Zeo (ZAP).
[5] abbreviates: experiment: confirmatory screen 3, BHK/HA-Zeo (control).
[6] abbreviates: experiment: confirmatory screen 3, BHK/NZAP-Zeo (ZAP).
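Also: Interferon-defective BHK-21 derivatives, ZAP line overexpressing the rat ZAP N-terminal zinc finger domain fused to Zeocin resistance, GFP scored within live singlet TagRFP+ cells.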

As to “MGAQLCFEANAKAPREALRFHAEAKGAQVRLDTRGCIAHRRTTFHDGIVFSQRPVRLGERVALRVLREESGWCGGLRVGFTRLDPACVSVPSLPPFLCPDLEEQSPTWAAVLPEGCALTGDLVRFWVDRRGCLFAKVNAGCRLLLREGVPVGAPLWAVMDVYGTTKAIELLDPTASRLPTPMPWDLSNKAVPEPKATPGEECAICFYHAANTRLVPCGHTYFCRYCAWRVFSDTAKCPVCRWQIEAVAPAQGPPALRVEEGS [LINCR]”, the percent infected by setting is: under setting [1], 97.12 ± 0.12%; under setting [2], 85 ± 1.6%; under setting [3], 94.5 ± 0.3%; under setting [4], 94.39 ± 0.54%; under setting [5], 91.97 ± 0.65%; under setting [6], 93.27 ± 0.19%.

With “MAATEISVLSEQFTKIKELELMPEKGLKEEEKDGVCREKDHRSPSELEAERTSGAFQDSVLEEEVELVLAPSEESEKYILTLQTVHFTSEAVELQDMSLLSIQQQEGVQVVVQQPGPGLLWLEEGPRQSLQQCVAISIQQELYSPQEMEVLQFHALEENVMVASEDSKLAVSLAETTGLIKLEEEQEKNQLLAERTKEQLFFVETMSGDERSDEIVLTVSNSNVEEQEDQPTAGQADAEKAKSTKNQRKTKGAKGTFHCDVCMFTSSRMSSFNRHMKTHTSEKPHLCHLCLKTFRTVTLLRNHVNTHTGTRPYKCNDCNMAFVTSGELVRHRRYKHTHEKPFKCSMCKYASVEASKLKRHVRSHTGERPFQCCQCSYASRDTYKLKRHMRTHSGEKPYECHICHTRFTQSGTMKIHILQKHGENVPKYQCPHCATIIARKSDLRVHMRNLHAYSAAELKCRYCSAVFHERYALIQHQKTHKNEKRFKCKHCSYACKQERHMTAHIRTHTGEKPFTCLSCNKCFRQKQLLNAHFRKYHDANFIPTVYKCSKCGKGFSRWINLHRHSEKCGSGEAKSAASGKGRRTRKRKQTILKEATKGQKEAAKGWKEAANGDEAAAEEASTTKGEQFPGEMFPVACRETTARVKEEVDEGVTCEMLLNTMDK [CTCFL]”, the percent infected was found to be 95.5 ± 1.9% under setting [1]; 68 ± 7.4% under setting [2]; 97.4 ± 0.23% under setting [3]; 95.98 ± 0.22% under setting [4]; 88.6 ± 1.2% under setting [5]; 86.4 ± 0.91% under setting [6].

In the case of PRIC285, the percent infected worked out at 94.6 ± 2.5% under setting [1]; 53.7 ± 6.2% under setting [2]; 96.59 ± 0.24% under setting [3]; 95.01 ± 0.88% under setting [4]; 83.7 ± 1.5% under setting [5]; 87.13 ± 0.73% under setting [6].

Take “MELRSYQWEVIMPALEGKNIIIWLPTGAGKTRAAAYVAKRHLETVDGAKVVVLVNRVHLVTQHGEEFRRMLDGRWTVTTLSGDMGPRAGFGHLARCHDLLICTAELLQMALTSPEEEEHVELTVFSLIVVDECHHTHKDTVYNVIMSQYLELKLQRAQPLPQVLGLTASPGTGGASKLDGAINHVLQLCANLDTWCIMSPQNCCPQLQEHSQQPCKQYNLCHRRSQDPFGDLLKKLMDQIHDHLEMPELSRKFGTQMYEQQVVKLSEAAALAGLQEQRVYALHLRRYNDALLIHDTVRAVDALAALQDFYHREHVTKTQILCAERRLLALFDDRKNELAHLATHGPENPKLEMLEKILQRQFSSSNSPRGIIFTRTRQSAHSLLLWLQQQQGLQTVDIRAQLLIGAGNSSQSTHMTQRDQQEVIQKFQDGTLNLLVATSVAEEGLDIPHCNVVVRYGLLTNEISMVQARGRARADQSVYAFVATEGSRELKRELINEALETLMEQAVAAVQKMDQAEYQAKIRDLQQAALTKRAAQAAQRENQRQQFPVEHVQLLCINCMVAVGHGSDLRKVEGTHHVNVNPNFSNYYNVSRDPVVINKVFKDWKPGGVISCRNCGEVWGLQMIYKSVKLPVLKVRSMLLETPQGRIQAKKWSRVPFSVPDFDFLQHCAENLSDLSLD [DHX58]”: the percent infected runs as follows: under setting [1], 95 ± 1.5%; under setting [2], 75.7 ± 2.1%; under setting [3], 95.81 ± 0.69%; under setting [4], 95.7 ± 0.2%; under setting [5], 94.51 ± 0.49%; under setting [6], 94.61 ± 0.18%.

“MKLRSSHNASKTLNANNMETLIECQSEGDIKEHPLLASCESEDSICQLIEVKKRKKVLSWPFLMRRLSPASDFSGALETDLKASLFDQPLSIICGDSDTLPRPIQDILTILCLKGPSTEGIFRRAANEKARKELKEELNSGDAVDLERLPVHLLAVVFKDFLRSIPRKLLSSDLFEEWMGALEMQDEEDRIEALKQVADKLPRPNLLLLKHLVYVLHLISKNSEVNRMDSSNLAICIGPNMLTLENDQSLSFEAQKDLNNKVKTLVEFLIDNCFEIFGENIPVHSSITSDDSLEHTDSSDVSTLQNDSAYDSNDPDVESNSSSGISSPSRQPQVPMATAAGLDSAGPQDAREVSPEPIVSTVARLKSSLAQPDRRYSEPSMPSSQECLESRVTNQTLTKSEGDFPVPRVGSRLESEEAEDPFPEEVFPAVQGKTKRPVDLKIKNLAPGSVLPRALVLKAFSSSSLDASSDSSPVASPSSPKRNFFSRHQSFTTKTEKGKPSREIKKHSMSFTFAPHKKVLTKNLSAGSGKSQDFTRDHVPRGVRKESQLAGRIVQENGCETHNQTARGFCLRPHALSVDDVFQGADWERPGSPPSYEEAMQGPAARLVASESQTVGSMTVGSMRARMLEAHCLLPPLPPAHHVEDSRHRGSKEPLPGHGLSPLPERWKQSRTVHASGDSLGHVSGPGRPELLPLRTVSESVQRNKRDCLVRRCSQPVFEADQFQYAKESYI [TAGAP]”: the percent infected amounted to 91.3 ± 3% under setting [1]; 64.8 ± 2.3% under setting [2]; 86.1 ± 4.6% under setting [3]; 92.53 ± 0.75% under setting [4]; 85 ± 2% under setting [5]; 89.95 ± 0.44% under setting [6].

As to “MDSRVSELFGGCCRPGGGPAVGGTLKARGAGSSSGCGGPKGKKKNGRNRGGKANNPPYLPPEAEDGNIEYKLKLVNPSQYRFEHLVTQMKWRLQEGRGEAVYQIGVEDNGLLVGLAEEEMRASLKTLHRMAEKVGADITVLREREVDYDSDMPRKITEVLVRKVPDNQQFLDLRVAVLGNVDSGKSTLLGVLTQGELDNGRGRARLNLFRHLHEIQSGRTSSISFEILGFNSKGEVVNYSDSRTAEEICESSSKMITFIDLAGHHKYLHTTIFGLTSYCPDCALLLVSANTGIAGTTREHLGLALALKVPFFIVVSKIDLCAKTTVERTVRQLERVLKQPGCHKVPMLVTSEDDAVTAAQQFAQSPNVTPIFTLSSVSGESLDLLKVFLNILPPLTNSKEQEELMQQLTEFQVDEIYTVPEVGTVVGGTLSSGICREGDQLVVGPTDDGCFLELRVCSIQRNRSACRVLRAGQAATLALGDFDRALLRKGMVMVSPEMNPTICSVFEAEIVLLFHATTFRRGFQVTVHVGNVRQTAVVEKIHAKDKLRTGEKAVVRFRFLKHPEYLKVGAKLLFREGVTKGIGHVTDVQAITAGEAQANMGF [GTPBP2]”, the percent infected runs as follows: under setting [1], 91.5 ± 3.9%; under setting [2], 64.4 ± 1.3%; under setting [3], 94.39 ± 0.34%; under setting [4], 94.94 ± 0.23%; under setting [5], 94 ± 1.1%; under setting [6], 93.43 ± 0.41%.

“MALEIHMSDPMCLIENFNEQLKVNQEALEILSAITQPVVVVAIVGLYRTGKSYLMNKLAGKNKGFSVASTVQSHTKGIWIWCVPHPNWPNHTLVLLDTEGLGDVEKADNKNDIQIFALALLLSSTFVYNTVNKIDQGAIDLLHNVTELTDLLKARNSPDLDRVEDPADSASFFPDLVWTLRDFCLGLEIDGQLVTPDEYLENSLRPKQGSDQRVQNFNLPRLCIQKFFPKKKCFIFDLPAHQKKLAQLETLPDDELEPEFVQQVTEFCSYIFSHSMTKTLPGGIMVNGSRLKNLVLTYVNAISSGDLPCIENAVLALAQRENSAAVQKAIAHYDQQMGQKVQLPMETLQELLDLHRTSEREAIEVFMKNSFKDVDQSFQKELETLLDAKQNDICKRNLEASSDYCSALLKDIFGPLEEAVKQGIYSKPGGHNLFIQKTEELKAKYYREPRKGIQAEEVLQKYLKSKESVSHAILQTDQALTETEKKKKEAQVKAEAEKAEAQRLAAIQRQNEQMMQERERLHQEQVRQMEIAKQNWLAEQQKMQEQQMQEQAAQLSTTFQAQNRSLLSELQHAQRTVNNDDPCVLL [GBP5]”: the percent infected by setting is: under setting [1], 95.4 ± 1.4%; under setting [2], 60 ± 5.7%; under setting [3], 97.28 ± 0.17%; under setting [4], 96.34 ± 0.093%; under setting [5], 87.3 ± 1.1%; under setting [6], 86.3 ± 0.93%.
